Source: US20260258115A1 (MAPP BIOPHARMACEUTICAL, published 2026)

B1: ADI-41250 (antibody, V domains shown)
VH: QVQLQQWGAGLLKPSETLSLTCAVSGESLTGYFWSWIRQPPGKGLEWIGEVSHSGSTNYNPSLKSRVTMSVDTSKTQFSLKLNSVTAADTAVYYCARGYDYWSGTARYFDYWGQGILVTVSS
VL: QPVLTQPASVSGSPGQSITISCTGTSSDVGGYNYVSWYQQHPGKAPKLMIYDVSNRPSGVSSRFSGSKSGNTASLTISGLQAEDEGDYYCSSYRSSTTSRVFGGGTKVTVL
B2: ADI-41253 (antibody, V domains shown)
VH: EVQLVQSGPGLVKPSETLSLTCTVSGDSISSSDYSYYWGWIRQPPGKGLEWIASLSYSGKTYSQSSLKSRVIISVDTSKKQFSLKLSSVTAADTAVYYCAVTRCYVCTSEGDSFDMWGQGTMVTVSS
VL: DIVLTQTPGTLSLSPGERATLSCRASQSISGNYLAWYQHKPGQAPRLLIYGASTRATGIPDRFSGSGSGTDFPLTISRLEPEDFAVYYCQQYATSPYTFGQGTKVDIK
B3: ADI-41259 (antibody, V domains shown)
VH: QVQLVESGGRLVKPGGSLRLSCAASGFTFSDFYMSWIRQAPGKGLEWVSYISSSGDDPNYADSVKGRFTISRDNSKNSLYLQMNSLRAEDTAVYYCARDEVGWNNLDYYFGMDVWGQGTTVTVSS
VL: DIVMTQSPLSLPVTLGQPASISCRSSQSLVHSDGNTYLSWFHQRPGQSPRRLIYKVSNRDSGVPNRFSGGGSGTDFTLKISRVEAEDVGFFYCMQGTHWQKTFGQGTKVEIK
B4: ADI-41255 (antibody, V domains shown)
VH: EVQLVESGGGLVQPGGSLRISCAASGLTFSSYAMSWVRQAPGQGLEWVSSVSGSGVSTYYADSVKGRFTISRDNSKNTLYLQMNSLRAEDTAVYYCAKEDYYHFYMDVWGNGTTVTVSS
VL: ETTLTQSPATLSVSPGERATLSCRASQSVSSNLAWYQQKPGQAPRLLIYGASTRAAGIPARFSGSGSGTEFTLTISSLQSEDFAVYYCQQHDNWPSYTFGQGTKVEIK
B5: ADI-41258 (antibody, V domains shown)
VH: QVQLVQSGGGLVQRGGSLRLSCAASGFSFRSYAMSWVRQAPGKGLEWVSSISDSGDNTFYADSVKGRFSISRDNSRDTLYLQMNSLRAEDTAVYYCARGGYCSGGNCFPFDYWGQGTLVTVSS
VL: SYELMQLPSVSVSPGQTARITCSGDALPKQYGYWYQQKPGQAPVLVIYKDSERPSGIPERFSGSSSGTTVTLTISGVQAEDEADYYCQSADSGGTYVMFGGGTKLTVL
B6: ADI-41257 (antibody, V domains shown)
VH: QVQLVESGAEVKKPGSSVKVSCKASEGTFSSYGISWVRQAPGQGPEWMGEINPMFGTAKYAQKFQGRVTITVDESTSTADMELSSLTSEDTAVYYCAREFLGQCSETNCPTPSRHLDYWGQGTLVTVSS
VL: EIVMTQSPSSLSASVGDRVTITCRASRTISSYLNWYQQKPGKAPKLLIYATSNLQSGVPSRFSGSGSGADFTLTISSLQPEDFATYYCQQTYSTPGFGPGTKVDIK
B7: ADI-41254 (antibody, V domains shown)
VH: EVQLVESGGGLVQSGGSLRLSCAASGFTFSSYEMNWVRQAPGKGLEWVSYTTNNGRTIYYADSVKGRFTISRDNAKNSLFLQMNGLRAEDTAVYYCARGIQFSRVDYAMDVWGQGTTVTVSS
VL: SYELTQPPSVSGTPGQRITISCSGSSSNIASNTVNWYQHLPGTAPKLLIYSDNQRPSGVPDRFSGSKSGTSASLAISGLQSEDEADYYCAIWDDSLNASYVFGTGTKLTVL
B8: ADI-41256 (antibody, V domains shown)
VH: QVQLVQSGAEVKSPGSSATVSCKASGGTFGSYGISWVRQAPGQGLEWIGAIMPMFGTTNYAQKFQGRVTMTADESTSTVYMDVSSLRPDDTAVYYCVRDVFYDILTGYYDADYYHHYMDVWGKGTTVTVSS
VL: DIVMTQSPLSLPVTLGQPASISCRSGQSLVHSDGNTYLNWFQQRPGQSPRRLIYKVSNRGSGVPDRFSGSGSGTDFTLKISRVEAEDVGVYFCMQGTHWPRTFGQGTKVDIK
B9: ADI-41263 (antibody, V domains shown)
VH: QVQLVQSGAEVKKPGASVKVYCKASGYTFTSHYIHWVRQAPGQGLEWMGRMNPSGGSPMYAQKFQERVTMTRDTSTSTAYMELRSLRSEDTAVYYCAMAKFYSFDYWGQGTLVTVSS
VL: QSVLTQPHSVSESPGKTVTISCTRSSGSIASYFVHWYQQRPGSAPTIVIYEDNQRPSGVPDRFSGSIDSSSNSASLTISGLKTEDEADYYCQSYDSSNWVFGGGTKLTVL
B10: ADI-41261 (antibody, V domains shown)
VH: QVQLVQSGAEVKKPGSSVKVSCKASGGTFSSYGISWVRQAPGQGLEWMGGIIPMFGAANYAQKFQGRVTITAETSTSTAFMELSSLRSDDTAVYYCARIRWVPNWGGTATSFYNGMDVWGQGTTVTVSS
VL: EIVMTQSPGTLSLSPGERATLSCRASQSVSSSYLAWYQQKPGQAPRLLIYGASSRATGIPDRFSGSGSGTDFTLTISRLEPEDFAVYYCQHYGSSLFTFGPGTKVDIK
B11: ADI-41265 (antibody, V domains shown)
VH: EVQLVQSGAEVKKPGESLTISCKDSGYSFTSYWIGWVRQVPGKGLEWMGIVYPGDSRYSPSFQGHVTMSADKSINTAYLQWSTLKASDTAMYYCAKVVTYGSAIRWFESWGQGTLVTVSS
VL: QSVLTQPPSVSAAPGQKVSISCSGSSSNIGNNFVSWYQQVPGTAPKLLIIDNNKRPSGIPDRFSGSKSGTSATLGITGLQTGDEADYYCGTWDSRLSAEVFGGGTKLTVL
B12: ADI-41251 (antibody, V domains shown)
VH: EVQLVESGGGLVKPGGSLRLSCAASGFTFSDYYMTWIRQAPGKGLEWVSNISGGSSYTNYADSVKGRFTISRDNAKNSVYLQMNSLRAEDTAVYYCARVGCSGGVCNFFLDYWGQGTLVTVSS
VL: QSVLTQPPSVSGAPGQRVTISCTGSSSNIGAGYDVHWYQQLPGTAPKLLIYDNTNRPSGVPDRFSGSKSGTSASLAITGLQAEDEADYYCQSYDSSLSGYVFGTGTKVTVL
B13: ADI-41266 (antibody, V domains shown)
VH: QVQLQQSGPGLVKPSQTLSLTCAISGDSVSSNSAAWNWIRQSPSRGLEWLGRTYYRSKWYNDYAVSVKSRITINPDTSKNQFSLQLNSVTPEDTAVYYCARDLPQVDYFDGASFYFFDFWGQGTLVTVSS
VL: QPVLTQPPSVSVAPGQTASITCGGNIIGNKGVHWYQQKPGRAPVLVVYDDSDRPSGIPERFSGSNSGNTATLTISRVEAADEADYYCQVWDTGSHPVVFGGGTKVTVL
B14: ADI-41264 (antibody, V domains shown)
VH: EVQLVESGGGLVKPGGSLRLSCAASGFTFSNTWMSWVRQAPGKGLEWVGHIKSKTDGGTTDYAAPVKGRFTISRDDSKSILNLHLNSLKTEDSAVYYCAALPPISGWYYTPGFWGQGTLVTVSS
VL: SYELTQPPSMSVSPGQTARITCFGDAVPKKYVYWYQQKSGQAPVMVIYDDRRRPSGIPERFSGSSSGARATLTISGAQVEDEADYYCYSTDGSGNPSFGGGTKLTVL
B15: ADI-41252 (antibody, V domains shown)
VH: EVQLVQSGAEVKKPGESLKISCMGSGYNFPNYWIGWVRQMSGKGLEWMGIIYPDDSDTTYSPSFQGQVIFSADKSISTAYLQWSSLKASDTAMYFCVRLDKTTQIDFWGQGTLVTVSS
VL: EIVLTQSPSSLSASVGDRVTITCQASQDISNYLNWYQQKPGKAPKLLIYDVSNLETGVPSRFSGSGSGTDFTFTISSLQPEDIATYYCQQHDNLPLTFGQGTRLEIK

Target: RSV F on RSV-A2 virus (Respiratory syncytial virus (RSV-A2))
Test: cell-based or functional assay

Compared with B1, B2 is lower in “Neutralization IC50 (RSV subtype A)” value: over 25 µg/mL for the first, 0.03 µg/mL for the second.

Going from B3 to B4, the “Neutralization IC50 (RSV subtype A)” value rises from 0.02 µg/mL to over 25 µg/mL.

B5 and B6 cannot be ordered by “Neutralization IC50 (RSV subtype A)” value: over 25 µg/mL for the first, over 25 µg/mL for the second.

First: B7
Second: B8
The “Neutralization IC50 (RSV subtype A)” value of the first is higher: over 25 µg/mL for the first, 0.02 µg/mL for the second.

B9 and B10 cannot be ordered by “Neutralization IC50 (RSV subtype A)” value: over 25 µg/mL for the first, over 25 µg/mL for the second.

Compared with B11, B12 is lower in “Neutralization IC50 (RSV subtype A)” value: over 25 µg/mL for the first, 0.11 µg/mL for the second.

B13 and B14 cannot be ordered by “Neutralization IC50 (RSV subtype A)” value: over 25 µg/mL for the first, over 25 µg/mL for the second.

In the case of B15, the “Neutralization IC50 (RSV subtype A)” value is reported as over 25 µg/mL.
